Earlier results on one substance are cited in paper PMC3784502.

The series has as its target APC 15-aa repeat region (Homo sapiens) (UniProt P25054).
UniProt P25054, sequence (P25054 1020-1169): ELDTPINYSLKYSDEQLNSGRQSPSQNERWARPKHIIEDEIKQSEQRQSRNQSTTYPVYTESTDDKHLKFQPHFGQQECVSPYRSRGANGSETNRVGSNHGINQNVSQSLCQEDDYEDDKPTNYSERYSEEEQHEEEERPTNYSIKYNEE

As usually defined, the Kd is the equilibrium constant for the complex coming apart. For “β-catenin ARM repeats 5-9 (from UniProt P35222)”, the Kd is 273 nM.
